Columns and labels:
[1] = molecular target: T1, cynomolgus monkey Sclerostin (cynomolgus monkey, UniProt Q9BG78 24-213 (Chlorocebus aethiops entry)); test: BLI (Gator), antibody on anti-hFc biosensor, Sclerostin as analyte, 1:1 global fit
T1 chain: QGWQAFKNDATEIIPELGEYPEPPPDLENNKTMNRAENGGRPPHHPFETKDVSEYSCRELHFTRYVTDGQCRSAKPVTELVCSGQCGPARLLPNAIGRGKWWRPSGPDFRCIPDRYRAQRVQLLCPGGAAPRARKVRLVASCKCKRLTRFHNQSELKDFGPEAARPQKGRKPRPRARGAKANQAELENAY
Description: (§1) The binding affinity of humanized anti-Sclerostin antibodies to human and cynomolgus monkey Sclerostin were determined with bio-layer interferometry using a Gator instrument (Probe Life). Antibodies were immobilized on an anti-hFc biosensor, using a […]. Serial dilutions of human Sclerostin and cynomolgus monkey Sclerostin from 4 μg/ml by two folds in kinetics buffer (PBS, pH 7.4, 0.05% Tween-20, 0.2% BSA, 10 μM biotin) were used as the analytes. Affinity (KD) and kinetic parameters (Kₒₙ and Koff) were calculated from a global fit (1:1) of the data using the Gator software.

human DKK1 [2] = molecular target: T2, human DKK1 (human, UniProt O94907 32-266); test: BLI (Gator), antibody on anti-hFc biosensor, antigen as analyte, 1:1 global fit
T2 construct: Analyte in BLI and the protein added in the reporter assay; also called hDKK1; Dickkopf-1
T2 sequence (looked up): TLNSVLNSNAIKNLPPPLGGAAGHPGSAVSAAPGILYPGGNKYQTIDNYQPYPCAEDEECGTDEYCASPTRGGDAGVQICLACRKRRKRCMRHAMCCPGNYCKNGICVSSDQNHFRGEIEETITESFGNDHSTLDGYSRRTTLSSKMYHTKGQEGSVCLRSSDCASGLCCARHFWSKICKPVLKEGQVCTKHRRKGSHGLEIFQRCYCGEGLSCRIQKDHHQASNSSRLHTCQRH
Description: (§2) Binding kinetics and affinities of anti-Sclerostin×anti-DKK1 and anti-Sclerostin×anti-RANKL bispecific antibodies were measured with Gator (Probe Life) bio-layer interferometry (BLI). Antibodies were immobilized on an anti-hFc biosensor, using a 5 μg/ml solution. Serial dilutions of sclerostin (from 1 μg/ml), DKK1 (from 2 μg/ml), or RANKL (from 4 μg/ml) by two folds in kinetics buffer (PBS, pH 7.4, 0.05% Tween-20, 0.2% BSA) were used as the analytes. Affinity (KD) and kinetic parameters (Kₒₙ and Koff) were calculated from a global fit (1:1) of the data using the Gator software.

human Sclerostin [3] = molecular target: T3, human Sclerostin (human, UniProt Q9BQB4 24-213); test: as above
T3 construct: Analyte of the BLI assays and the protein added in the reporter assays; also called hSclerostin; SOST
T3 sequence: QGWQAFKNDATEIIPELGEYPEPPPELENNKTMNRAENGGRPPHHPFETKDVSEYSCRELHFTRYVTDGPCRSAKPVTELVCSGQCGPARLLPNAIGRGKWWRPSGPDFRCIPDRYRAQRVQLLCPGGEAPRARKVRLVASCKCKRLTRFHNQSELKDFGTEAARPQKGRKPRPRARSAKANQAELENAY
Description: as §2

human DKK1 [4] = molecular target: T2, human DKK1; test: cell-based or functional assay
human Sclerostin [5] = molecular target: T3, human Sclerostin; test: cell-based or functional assay
[6] = molecular target: T4, His-tagged human Sclerostin (NCBI reference No. NP_079513.1) (human, UniProt Q9BQB4 24-213); test: ELISA, plate coated with His-tagged human Sclerostin
T4 construct: also called mouse His-tagged human Sclerostin; not shown: His tag
T4 sequence: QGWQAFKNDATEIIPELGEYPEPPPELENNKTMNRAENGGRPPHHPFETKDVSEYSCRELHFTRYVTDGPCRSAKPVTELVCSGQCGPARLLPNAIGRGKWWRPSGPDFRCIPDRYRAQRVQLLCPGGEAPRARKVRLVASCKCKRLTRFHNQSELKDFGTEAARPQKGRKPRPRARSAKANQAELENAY
Description: The ability of antibodies to specifically bind Sclerostin was determined by an ELISA capture assay. Plates were coated, in a 96-well half-area, with 100 μl/well of mouse His-tagged human Sclerostin (NCBI reference No. is NP_079513.1) [[…]], in coating buffer (PBS, pH 7.4), and incubated at RT for one hour, or 4° C. overnight. The plates were washed once with 100 μl/well of washing solution (PBS containing 0.2% Tween20, BIO-RAD). Plates were then incubated in blocking solution (PBS containing 1% BSA, 1% goat serum and 0.5% Tween20; 100 μl/well) for one hour at room temperature (RT). Anti-Sclerostin antibodies at various concentrations (1000, 333.3, 111.1, 37.0, 12.3, 4.1, 1.4, 0.5, 0.15, 0.05 ng/ml), a positive control antibody Romosozumab or non-Sclerostin related IgG (human or rat IgG, negative control), were then added to each well in 20 μl/well of blocking solution, and plates were incubated at RT for one hour. NeutrAvidin HRP (Pierce, Catalog #31001) diluted in blocking solution (1:50,000 dilution) was added at to each well ([…]), and the plates were incubated at RT for one hour prior to three washes with […] of washing solution. SuperSignal ELISA Femto (ThermoFisher Scientific, Catalog #37074) working solution was added to the plates ([…]), and the signal was read using a luminometer at 425 nm.

human Sclerostin [7] = molecular target: T3, human Sclerostin; test: cell-based or functional assay; remark: listed apart in the source
human Sclerostin [8] = molecular target: T3, human Sclerostin; test: BLI (Gator), antibody on anti-hFc biosensor, Sclerostin as analyte, 1:1 global fit
Description: as §1

Row | Binder | EC50 [6] [nM] | EC50, Sclerostin-neutralisation activity in HEK293/TCF/LEF/Wnt1 cells (luciferase reporter) (human Sclerostin [7]) [nM] | further results
1 | Romosozumab (antibody, V domains shown) VH: EVQLVQSGAEVKKPGASVKVSCKASGYTFTDYNMHWVRQAPGQGLEWMGEINPNSGGAGYNQKFKGRVTMTTDTSTSTAYMELRSLRSDDTAVYYCARLGYDDIYDDWYFDVWGQGTTVTVSS VL: DIQMTQSPSSLSASVGDRVTITCRASQDISNYLNWYQQKPGKAPKLLIYYTSRLLSGVPSRFSGSGSGTDFTLTISSLQPEDFATYYCQQGDTLPYTFGGGTKVEIK | – | – | Kd [1]: 0.35 nM; koff [1]: 0.000239 s⁻¹; kon [1]: 755000 M⁻¹ s⁻¹
2 | BAP0039 (bispecific antibody, human IgG4 S228P, kappa, Anti-DKK1 scFv (VH-VL) fused to the C-terminus of the heavy chains of the anti-Sclerostin full length antibody (hAb-1)) heavy: not shown light: DVVMTQSPLSLSVSPGERASLSCKSSQSLLYSDGRTYLNWYLQKPGQSPQRLIYLVSKLDSGVPDRFSGSGSGTDFTLKISRVQSEDVGVYYCWQGTHLPHTFGGGTKVEIKRTVAAPSVFIFPPSDEQLKSGTASVVCLLNNFYPREAKVQWKVDNALQSGNSQESVTEQDSKDSTYSLSSTLTLSKADYEKHKVYACEVTHQGLSSPVTKSFNRGEC | – | – | Kd (human DKK1 [2]): 0.14 nM; koff (human DKK1 [2]): 4.32e-05 s⁻¹; kon (human DKK1 [2]): 309000 M⁻¹ s⁻¹; Kd (human Sclerostin [3]): 0.052 nM; koff (human Sclerostin [3]): 9.74e-05 s⁻¹; kon (human Sclerostin [3]): 1.88e+06 M⁻¹ s⁻¹; EC50, DKK1 neutralization activity in HEK293/TCF/LEF/Wnt1 reporter gene assay (human DKK1 [4]): 20.9 nM; EC50, Sclerostin neutralization activity in HEK293/TCF/LEF/Wnt1 reporter gene assay (human Sclerostin [5]): 26.7 nM
3 | 65B12C9 (antibody, V domains shown, Murine monoclonal antibody from a hybridoma) VH: QVQLQQPGAELVKPGASVKLSCKASGYTFTSYWMHWVKQRPGQGLEWIGMIHPNSGSSNYNEKFKSKATLTVDKSSSTAYMQLSSLTSEDSAVYYCANDYDDEGFAYWGQGTLVTVSA VL: SIVMTQTPKFLLVSAGDRVTITCKASQSVSNDVAWYQQKPGQSPKLLIYYASNRCTGVPDRFTGSGYGTDFTFTISTVQAEDLAVYFCQQDYSSPWTFGGGTKLEIK | 0.04 | 152 | –
4 | 91F6D10 (antibody, V domains shown, Murine monoclonal antibody from a hybridoma) VH: QVQLQQSGAELVRPGASVTLSCKASGYTFTDYEMHWVKQTPVHGLEWIGAIDPETGGTAYNQKFKAKAILTADRSSSTAYMELRSLTSEDSAVYYCFSYDYVSYWGQGTLVTVSA VL: not shown | 0.06 | 60.6 | –
5 | 51E8D4 (antibody, V domains shown, Murine monoclonal antibody from a hybridoma) VH: QVQLQQSGAELVRPGASVTLSCKASGYTFTDFEIHWMKQTPVPGLEWIGAIDPETGGTAYNQKFKGKALLTADKSSSTAYMDLRSLTSEDSAVYFCFSYDYVSYWGQGTLVTVSA VL: not shown | 0.07 | 63.4 | –
6 | 94B12D3 (antibody, V domains shown, Murine monoclonal antibody from a hybridoma) VH: QVQLQQSGAELVRPGASVTLSCKASGYTFTDYEIHWVKQTPVHGLEWIGAIDPETGGTAYNQKFKAKAILTADRSSSTAYMELRSLTSEDSAVYYSFSYDYVSYWGQGTLVTVSA VL: not shown | 0.04 | 62.8 | –
7 | 97C11D7 (antibody, V domains shown, Murine monoclonal antibody from a hybridoma) VH: QVQLQQSGAELVRPGASVTLSCKASGYTFTDYEMHWVKQTPVHGLEWIGAIDPETGGSANNQKFKAKAILTADRSSSTAYMELRSLTSEDSAVYYCFSYDYVSYWGQGTLVTVSA VL: not shown | 0.04 | 55.4 | –
8 | 56E5C10 (antibody, V domains shown, Murine monoclonal antibody from a hybridoma) VH: QVQLQQSGAELVRPGASVTLSCKASGYTFTDFEMHWVKQTPVHGLEWIGAIDPETGGTAYNQKFTAKAILTADRSSSTAYMELRSLTSEDSAVYYCFSYDYVSYWGQGTLVTVSA VL: not shown | 0.09 | 64.2 | –
9 | 81B2B6 (antibody, V domains shown, Murine monoclonal antibody from a hybridoma) VH: QVQLQQSGAELVRPGASVTLSCKASGYTFTDYEMHWVKQTPVHGLEWIGAIDPETGGTAYNQKFKAKAILTADRSSSTAYMELRSLTSEDSAVYYCFSYDYVSYWGQGTLVTVSA VL: not shown | 0.01 | 59.6 | –
10 | 84F2D5 (antibody, V domains shown, Murine monoclonal antibody from a hybridoma) VH: QVQLQQSGAELVRPGASVTLSCKASGYTFTDFEIHWLKQTPVPGLEWIGAIDPETGGTAYNQKFKGKALLTADKSSSTAYMELRSLTSEDSAVYYCFSYDYVSYWGQGTLVTVSA VL: not shown | 0.02 | 59.4 | –
11 | 71G6G8 (antibody, V domains shown, Murine anti-Sclerostin monoclonal antibody) VH: QAQLQQSGAELVRPGASVTLSCKASGYTFTDYEIHWVKQTPVHGLEWIGAIDPETGGTAYNQKFKGKAILTADRSSSTAYLELRSLTSEDSAVYYCFSYDYVTYWGQGTLVTVTA VL: not shown | 0.04 | 67.4 | –
12 | hAb-1 (antibody, V domains shown, Humanized 93B1B7; also called humanized anti-Sclerostin antibody hAb-1) VH: EVQLVQSGAEVKKPGASVKVSCKASGYTFTDYEIHWVRQAPGKGLEWMGAIDPETGGTAYNQKFKGRVTMTTDTSTSTAYMELRSLRSDDTAVYYCYSYDYVTYWGQGTTVTVSS VL: DVVMTQSPLSLSVSPGERASLSCKSSQSLLYSDGRTYLNWYLQKPGQSPQRLIYLVSKLDSGVPDRFSGSGSGTDFTLKISRVQSEDVGVYYCWQGTHLPHTFGGGTKVEIK | – | 13.9 | Kd [1]: 0.18 nM; koff [1]: 0.000229 s⁻¹; kon [1]: 1.28e+06 M⁻¹ s⁻¹; Kd (human Sclerostin [8]): 0.41 nM; koff (human Sclerostin [8]): 0.0003 s⁻¹; kon (human Sclerostin [8]): 730000 M⁻¹ s⁻¹
13 | hAb-3 (antibody, V domains shown) VH: EVQLVQSGAEVKKPGASVKVSCKASGYTFTDYEIHWVRQAPGKGLEWMGAIDPETGGTAYNQKFKGRVTMTTDTSTSTAYMELRSLRSDDTAVYYCYSYDYVTYWGQGTTVTVSS VL: DIQMTQSPSSLSASVGDRVTITCRSSQSLLYSDSRTYLNWLQQKPGKSPKRLIYLVSKLDSGVPDRFSGSGSGTDFTLTISSLQPEDFATYYCWQGTHLPHTFGGGTKVEIK | – | 15.1 | –

Reference: patent US20230312755A1 (ANGITIA, published 2023)
